Measured values reported in patent US20080213176A1, “Compositions for Targeting Amine Oxidases in Vivo” (priority 2005, published 2008).
Entries after “also recorded” stand apart in the source; their conditions may differ.

Assays:
VAP-1 [1] = molecular target: T1, VAP-1 (Homo sapiens, UniProt Q16853); experiment: Fluorometric detection of SSAO-mediated H2O2 formation (Amplex Red) with VAP-1 transfected CHO cells; type: biochemical; set-up: The CHO cells stably transfected with the cDNA encoding VAP-1 was used; expressed in transfected cells; host or cells: CHO cells, stably transfected; conditions: for inhibition of the activity (VAP-1 SSAO): methylamine substrate
T1 sequence (Q16853 1-763): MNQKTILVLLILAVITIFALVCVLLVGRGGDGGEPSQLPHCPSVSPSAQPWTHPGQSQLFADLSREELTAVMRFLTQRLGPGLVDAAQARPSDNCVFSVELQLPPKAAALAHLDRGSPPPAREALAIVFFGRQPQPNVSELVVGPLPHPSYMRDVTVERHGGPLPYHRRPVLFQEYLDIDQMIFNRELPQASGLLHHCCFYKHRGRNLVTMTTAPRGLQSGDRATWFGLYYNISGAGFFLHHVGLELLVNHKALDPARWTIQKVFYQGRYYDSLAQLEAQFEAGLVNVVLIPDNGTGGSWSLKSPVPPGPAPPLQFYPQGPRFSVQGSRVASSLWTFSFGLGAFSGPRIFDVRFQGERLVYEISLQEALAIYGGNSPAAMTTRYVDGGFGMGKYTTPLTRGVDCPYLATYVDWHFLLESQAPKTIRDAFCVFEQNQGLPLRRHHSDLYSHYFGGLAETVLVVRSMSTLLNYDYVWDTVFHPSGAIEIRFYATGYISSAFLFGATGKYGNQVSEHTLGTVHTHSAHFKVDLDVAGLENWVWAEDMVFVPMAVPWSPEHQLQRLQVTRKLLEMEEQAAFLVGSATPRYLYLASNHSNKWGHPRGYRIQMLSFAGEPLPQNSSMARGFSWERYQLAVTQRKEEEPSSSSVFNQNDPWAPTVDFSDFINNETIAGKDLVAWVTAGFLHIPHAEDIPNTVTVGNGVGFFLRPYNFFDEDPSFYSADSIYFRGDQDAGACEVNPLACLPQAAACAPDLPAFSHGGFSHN
Method: Cells. The CHO cells stably transfected with the cDNA encoding VAP-1 was used. The VAP-1 expression level of these cells was confirmed by staining with anti-VAP-1 monoclonal antibodies and subsequent flow cytometric analyses. The VAP-1 transfectants were grown into the confluence, detached, counted and equal numbers were divided to 96 well plates for enzymatic assays.
Fluorometric detection of SSAO-mediated H2O2 formation. Amine oxidase activities were measured using a highly sensitive and stable probe for H2O2 Amplex Red reagent (Molecular Probes Europe BV) as described previously (Salmi et al., 2001). The enzymes were incubated in white microplates in the final volume of 200 μl KRPG containing various concentrations of the tested peptides, 0.8 U/ml horseradish peroxidase, 60 μM Amplex Red reagent, and methylamine as preferred amine substrate for SSAO. Fluorescence intensity of the samples was measured using Tecan ULTRA fluoropolarometer (excitation/emission wavelengths 545/595 nm). To evaluate the amount of H2O2 formed via SSAO-mediated reaction, specific enzyme inhibitor semicarbazide (200 μM) was included in the control well, and these values were subtracted from the total amount of H2O2 formed. To test whether the peptides could interfere with fluorometric H2O2 detection, H2O2 concentrations were calculated from calibration curves generated by serial dilutions of standard H2O2 in the presence of various concentrations of peptides. All calibration curves show linear dependence of the measured fluorescence intensity vs. H2O2 concentration in the presence of peptides in concentrations less than 250 micrograms/ml.

VAP-1 [2] = molecular target: T1, VAP-1; conditions: computer docking simulations, literature; cited from earlier work
[3] = peptide concentration 10 micrograms/ml
[4] = peptide concentration 100 micrograms/ml

| Substance | inhibition of the activity (VAP-1 SSAO) (VAP-1 [1]; [3]) [%] | inhibition of the activity (VAP-1 SSAO) (VAP-1 [1]; [4]) [%] | binding to the active site of VAP-1 in docking (VAP-1 [2]) | VAP-1 inhibiting activity compared with earlier lysine containing peptides (VAP-1 [1]; comparison in words) |
| --- | --- | --- | --- | --- |
| GGGGKGGGG (VAP-1 targeting peptide) | 17.4 | 20.3 | bind optimally |  |
| GGGGKYGGG (VAP-1 targeting peptide) | 33.5 | 42.8 |  | stronger than that of the previously disclosed lysine containing peptides; also recorded: more potent inhibitor of VAP-1 than GGGGKGGGG |
| GGGKEGG (VAP-1 targeting peptide) [previously disclosed lysine containing peptide] |  |  | bind optimally |  |
| GGGKGGG (VAP-1 targeting peptide) [previously disclosed lysine containing peptide] |  |  | bind optimally |  |
| GGGKKGG (VAP-1 targeting peptide) [previously disclosed lysine containing peptide] |  |  | bind optimally |  |
